± gives the standard deviation.
Test: protein stability index of a GFP-peptide fusion (GPS, HEK-293T) (PSI 1-6); higher = more stable
Details: c terminus: a fixed tail appended
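Also: 24-mer peptide tiles fused after GFP, lentivirally expressed, FACS-sorted into six equal bins by GFP/DsRed ratio, decoded by Illumina sequencing, PSI is the read-weighted mean bin number.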

Row | Sequence | protein stability index (treatment: DMSO) | protein stability index (treatment: MLN4924 1 uM, 8 h)
1 | CYTFSVLITFDNKAHSGRIPISLE [MCOLN1] | 3.58 ± 0.41 | 3.3 ± 0.62
2 | DAIGEGKVTLRIRNVRFSDEGGFT [MOG] | 2.88 ± 0.35 | 2.84 ± 0.44
3 | DDILYHVKGMQRIVNQWSEKFSDE [DLC1] | 3.52 ± 0.14 | 3.75 ± 0.28
4 | DDKMVRFWRIDEDYPVQVAPLSNG [WSB1] | 3.37 ± 0.34 | 3.45 ± 0.33
5 | DDLQQLQLFTEYGRLAMDEIFQKP [ATL3] | 3.31 ± 0.26 | 3.57 ± 0.21
6 | DEEQQVLLSRLEEEEQDILQRLRE [TRIM39] | 5.27 ± 0.098 | 5.28 ± 0.33
7 | DESAIDFSAYIDSMAAVPTLELCH [CEBPD] | 3.17 ± 0.26 | 3.31 ± 0.17
8 | DFHQGLLSFYNARTKQVLHTFKTR [FSD1] | 2.2 ± 0.16 | 2.28 ± 0.31
9 | DGMRNKETLEGREKAFIAHFQDNL [MED27] | 4.35 ± 0.17 | 4.2 ± 0.17
10 | DGNSLLSSIECYDPIIDSWEVVTS [KLHL12] | 3.29 ± 0.33 | 3.47 ± 0.47
11 | DGSKSLGEENFEVVKQFVTGIIDS [MATN2] | 4.38 ± 0.13 | 4.33 ± 0.27
12 | DGVPHLILIASRDIAAGEELLYDY [KMT5A] | 1.98 ± 0.31 | 2.13 ± 0.099
13 | DHDPTIEDAYKIRIRIDDEPANLD [RIT1] | 4.86 ± 0.19 | 4.84 ± 0.21
14 | DIKQLIAKKIKLTAEAEELKPFFM [SOAT1] | 2.59 ± 0.59 | 2.15 ± 0.1
15 | DIQIVERKKSADVLALADEAGYYF [ADAMTSL2] | 3.08 ± 0.23 | 3.39 ± 0.2
16 | DKDCSLDCAGSPQKPLCASDGRTF [SMOC2] | 4.68 ± 0.39 | 4.76 ± 0.34
17 | DKLEYLDEKQRDPRIEASKVLLCH [NET1] | 4.09 ± 0.22 | 4.08 ± 0.19
18 | DKMEAYNIDETCGRHHSQSTEVQA [TEKT4] | 4.91 ± 0.19 | 4.9 ± 0.17
19 | DKWFRKIKDHFCPFENQFHTEIQI [C8orf76] | 2.2 ± 0.54 | 2.32 ± 0.42
20 | DLETHRLPCTSRCPRPCRESAFKL [SCNN1D] | 2.41 ± 0.21 | 2.44 ± 0.063
21 | DLLNVCMRHVEKMCKADLSRNFIE [TRIM29] | 3.09 ± 0.21 | 2.87 ± 0.28
22 | DLLPTFRHTLQKLTCEFNNNHESL [FBXO39] | 2.27 ± 0.22 | 2.35 ± 0.48
23 | DLQVNRNFSLATNTKYSVYIYVYF [R3HDM1] | 2.59 ± 0.59 | 2.88 ± 0.078

Row | Sequence | protein stability index (treatment: DMSO) | protein stability index (treatment: MLN4924 1 uM, 8 h)
24 | DLRGVCVSGKCEPIGCDGVLFSTH [ADAMTSL2] | 2.4 ± 0.091 | 2.75 ± 0.59
25 | DLSHIEGLSQAPQPLADEGPPGRS [SERTAD1] | 5.11 ± 0.31 | 5.14 ± 0.36
26 | DLVRLLQNVARIPEFELLWKDIIH [INTS3] | 2.61 ± 0.65 | 2.15 ± 0.19
27 | DMKLIILANRLCLPHLVALTEQYT [RHOBTB2] | 3.8 ± 0.26 | 3.08 ± 1.3
28 | DNAIMLFSPDFTLRNTLKSTSEDS [FAN1] | 4.22 ± 0.34 | 4.2 ± 0.5
29 | DPEPSGPHLPRVMLPGVLAGVSAE [SCNN1D] | 4.59 ± 0.43 | 4.33 ± 0.21
30 | DPFTVPTISFICRELDAISTNEEE [PRIM1] | 4.85 ± 0.31 | 4.78 ± 0.3
31 | DPKEDVFQQNHLFWLQNSSPSSDR [PHTF1] | 4.71 ± 0.18 | 4.49 ± 0.19
32 | DPQLEIAYRGNCKDVSRCVAERKY [SMOC2] | 4.04 ± 0.32 | 4.12 ± 0.11
33 | DSFDKFEFCEPAFVVGNCLQIASD [PCMTD1] | 3.31 ± 0.072 | 3.24 ± 0.22
34 | DSGDVSNVIEKVKCILKTPGKINC [RHOBTB3] | 2.92 ± 0.21 | 2.87 ± 0.5
35 | DSKDCILEPLSLPESPGGTTTLEG [ZNF277] | 5.36 ± 0.19 | 5.32 ± 0.25
36 | DTILKYLKDHFSHLLGIPHSVLQI [IQUB] | 2.61 ± 0.43 | 2.63 ± 0.67
37 | DTPVQNKRRRSVTPPEEQQEAEEP [CDC25B] | 5.51 ± 0.35 | 5.71 ± 0.22
38 | DTSGFPDLSDNRNEDPLVLLAWRC [FBXO33] | 2.67 ± 0.23 | 3 ± 0.46
39 | DVEGAESQLDEDEHGLHTKYIHRM [TRAF3IP2] | 5.09 ± 0.23 | 5.13 ± 0.11
40 | DVHHGQGTQFTFDQDPSVLYFSIH [HDAC6] | 2.04 ± 0.34 | 2.02 ± 0.34
41 | DVQLLHSWNNNDRSLNVFVKEDDK [SPSB1] | 4.88 ± 0.14 | 4.97 ± 0.18
42 | DVRMGGSFRGAFSNSEKAKNIFRI [NET1] | 2.32 ± 0.44 | 2.44 ± 0.31
43 | DVTCFLLPHPGLQVATSPDFDGKL [ATL3] | 2.58 ± 0.27 | 2.69 ± 0.35
44 | DVVEYLVDRCGASVEAGGSVHFDG [FEM1A] | 2.48 ± 0.32 | 2.46 ± 0.6
45 | DVVNYFRTVGFEEQASAFQEQEID [SAMD13] | 3.44 ± 0.28 | 3.88 ± 0.44
46 | EAEADKPRRLGRLKYQAPDIDVQL [NOP53] | 4.63 ± 0.22 | 4.4 ± 0.2

Row | Sequence | protein stability index (treatment: DMSO) | protein stability index (treatment: MLN4924 1 uM, 8 h)
47 | EAERKIIEENITSAAPSNDQDGEY [SRPK2] | 5.66 ± 0.17 | 5.69 ± 0.26
48 | EAPQWLESDSCQKCEQPFFWNIKQ [WDFY1] | 3.32 ± 0.7 | 3.48 ± 0.38
49 | EDEDDDSADMDESDEDDEEERRRR [FBXO3] | 5.65 ± 0.27 | 5.69 ± 0.12
50 | EDYGHWLLCLRAVTHREGAPPLPG [PLEKHN1] | 2 ± 0.14 | 2.16 ± 0.26
51 | EEEEGTMMKAKGDLEMKEEEEISE [ZBED2] | – | 5.53 ± 0.53
52 | EEEVFPLAMNYLDRFLAGVPTPKS [CCND2] | 3.35 ± 0.43 | 3.55 ± 0.25
53 | EEFILLSQGEVEKLIKCDEIQVDS [KLHL12] | 4.49 ± 0.58 | 4.45 ± 0.48
54 | EEGIVSPSDLDLVMSEGLGMRYAF [CRYL1] | 2.27 ± 0.42 | 3.02 ± 0.31
55 | EEIPVVICAAAGRMGATMAAINSI [GLT8D2] | 2.48 ± 0.52 | 2.22 ± 0.21
56 | EELQSWVRGHHPKSGEEAVTVLED [ZNF232] | 5.09 ± 0.38 | 5.07 ± 0.39
57 | EERERIERVRRIHIKRPDDRAHLH [KCTD10] | 4.43 ± 0.18 | 4.54 ± 0.23
58 | EETRQKQLLADEKMKQLTEETEVL [TRIM35] | 5.65 ± 0.11 | 5.57 ± 0.22
59 | EEWGHQDPSKRALSRDTVQESYEN [ZNF263] | 5.27 ± 0.4 | 5.3 ± 0.23
60 | EGNQKGEQATSLAILRVIRLVRVF [KCNA1] | 2.2 ± 0.37 | 2.28 ± 0.37
61 | EGSLQQPKAQSAMSPYLVPDTQAL [SMG5] | 4.39 ± 0.27 | 4.5 ± 0.18
62 | EHAIAEAQKNMYFKTRLKCPRSLS [ZNF396] | 3.26 ± 0.23 | 3.53 ± 0.3
63 | EHSHRSHHSLASSLRSHHTHPSYG [DVL3] | 3.48 ± 0.25 | 3.56 ± 0.19
64 | EIPIHGNGEARQLPEDDGLEQDLQ [ARFIP2] | 5.04 ± 0.36 | 5.28 ± 0.12
65 | EKETMQFLNDRLANYLEKVRQLER [KRT36] | 2.87 ± 0.38 | 2.85 ± 0.32
66 | EKFSSSLHELSSRVEASHLTTSQE [FBF1] | 4.99 ± 0.19 | 5.01 ± 0.11
67 | EKGTWTELEGDVAEPLAGPACVTV [KLHL14] | 4.66 ± 0.19 | 4.6 ± 0.19
68 | EKRNAGNAVRSAMKSEEQKIKDAR [KMT5A] | 4.72 ± 0.15 | 5.09 ± 0.21
69 | EKYSVATQLFIGGVTGWCTGFIFQ [FUNDC2] | 2.75 ± 0.75 | 3.06 ± 0.35

Row | Sequence | protein stability index (treatment: DMSO) | protein stability index (treatment: MLN4924 1 uM, 8 h)
70 | ELDELQLCKNCFYLSNARPDNWFC [ZMYND11] | 2.01 ± 0.25 | 2.3 ± 0.62
71 | ELDLSLSDLNEVPVKELAALPKAT [LRRC59] | 4.4 ± 0.25 | 4.49 ± 0.29
72 | ELDPEVEGTKPSATEMIWAVLAAF [GOLPH3L] | 2.21 ± 0.36 | 2.37 ± 0.28
73 | ELGEEAMEKFREDEGFIKEEERPL [KCNA1] | 5.6 ± 0.31 | 5.63 ± 0.2
74 | ELLQQLDLNNCKNNLEPILEGYIS [KRT71] | 2.54 ± 0.1 | 2.62 ± 0.36
75 | ELNFISVFWPQLPNGLEAAYEFAD [MMP1] | 2.45 ± 0.47 | 2.15 ± 0.59
76 | ELRDSSAYHVPNRTLASGRLLSYR [DNAAF3] | 3.04 ± 0.11 | 3.25 ± 0.096
77 | ELRLQSEAFKKHSLDLLSKERELN [CCDC89] | 3.8 ± 0.2 | 3.69 ± 0.42
78 | ELRNVQDVVEDYKKRYEEEINKRT [KRT71] | 3.62 ± 0.35 | 4.45 ± 0.24
79 | EMAFNTRCKEENTIILQQLLPLRT [NLN] | 2.54 ± 0.55 | 2.5 ± 0.32
80 | EMEKSFREEEKTFWKKYRTFWKED [CCDC70] | 3.77 ± 0.31 | 3.67 ± 0.35
81 | EMRTKEQILELLVLEQFLTILPQE [ZNF263] | 2.44 ± 0.35 | 2.26 ± 0.43
82 | ENAGGSPSPEPAGRRAALYVHWPY [RSAD1] | 3 ± 0.4 | 3.23 ± 0.34
83 | ENHQPVSLSDLEIQASAGVISKKA [ZNF75A] | 4.94 ± 0.19 | 4.98 ± 0.39
84 | EPCGPGKSKLTYMCRVDLRGHMPE [DLC1] | 2.45 ± 0.29 | 2.11 ± 0.52
85 | EPGPAAYGLKPLTPNSKYVKLNVG [KCTD13] | 3.66 ± 0.11 | 3.62 ± 0.31
86 | EPPPKSGPSLVPGKTPTVRAALIC [CD207] | 3 ± 0.15 | 3 ± 0.23
87 | EQAKKESEDQKRLKQAKELDRERA [CHCHD3] | 5.57 ± 0.24 | 5.48 ± 0.17
88 | EQAQAYAERLGVTFFEVSPLCNFN [RAB40A] | 2.25 ± 0.26 | 2.48 ± 0.3
89 | EQIAERKRKMVSWEASSLGLVTAA [KMT2E] | 2.65 ± 0.45 | 3.33 ± 0.76
90 | EQLFFVRLVGKTPIETLIRDMLLS [NR2F2] | 2.56 ± 0.47 | 2.42 ± 0.61
